From article PMC3817697, “Building a pseudo-atomic model of the anaphase-promoting complex” (Acta Crystallographica Section D: Biological Crystallography, 2013) come the findings set out here.

B1: Cdc16 (Cut9) subunit of recombinant S. pombe APC/C (natural protein, UniProt P41889 1-671, looked up)
chain: MVVKRTQTDSRMQSTPGNHNHPDAHANAAYMTPPSMGALNANNSNSQLSTLTISPMTYLANNTSTDGSFLKERNAQNTDSLSREDYLRLWRHDALMQQQYKCAAFVGEKVLDITGNPNDAFWLAQVYCCTGDYARAKCLLTKEDLYNRSSACRYLAAFCLVKLYDWQGALNLLGETNPFRKDEKNANKLLMQDGGIKLEASMCYLRGQVYTNLSNFDRAKECYKEALMVDAKCYEAFDQLVSNHLLTADEEWDLVLKLNYSTYSKEDAAFLRSLYMLKLNKTSHEDELRRAEDYLSSINGLEKSSDLLLCKADTLFVRSRFIDVLAITTKILEIDPYNLDVYPLHLASLHESGEKNKLYLISNDLVDRHPEKAVTWLAVGIYYLCVNKISEARRYFSKSSTMDPQFGPAWIGFAHSFAIEGEHDQAISAYTTAARLFQGTHLPYLFLGMQHMQLGNILLANEYLQSSYALFQYDPLLLNELGVVAFNKSDMQTAINHFQNALLLVKKTQSNEKPWAATWANLGHAYRKLKMYDAAIDALNQGLLLSTNDANVHTAIALVYLHKKIPGLAITHLHESLAISPNEIMASDLLKRALEENSLTSGFLNSKYVFEDEVSEYMQQSNLNTSDKSMSMEDQSGKVTESVNDRTQVLYADSRSEMMMDDIEGNVSEQR
notes: Cdc16 (S. pombe name Cut9; human Apc6), TPR subunit of the S. pombe anaphase-promoting complex; Subunit within the recombinant S. pombe APC/C used for cryo-EM; the insect-cell MultiBac system is described only for the budding-yeast APC/C; also called Apc6; source: recombinant S. pombe APC/C

Data set [1] concerns the molecule itself. The data set can be described thus: cryo-EM structure; recombinant S. pombe APC/C, single-particle cryo-EM, about 12 Å, still being refined; atomic models of subunits docked into the density and refined as rigid bodies with URO.
For data set [2], the target named is B1. The data set is described as above. The settings on record: both partners purified.

For the molecule B1, the binding result in data set [1] is recorded as “binds”.

B2: Cdc26 (Hcn1) subunit of recombinant S. pombe APC/C (natural protein, UniProt O13916 1-80, looked up)
chain: MLRRNPTAIQITAEDVLAYDEEKLRQTLDSESTTEEALQKNEESTRLSPEKKKIIRERRIGITQIFDSSMHPSQGGAAQS
notes: Cdc26 (S. pombe name Hcn1), TPR accessory subunit of the S. pombe anaphase-promoting complex; Subunit within the recombinant S. pombe APC/C used for cryo-EM; source: recombinant S. pombe APC/C
Regarding B2, the binding result in data set [2] was “binds”.

B3: Cdc27 (Nuc2) subunit of recombinant S. pombe APC/C (natural protein, UniProt P10505 1-665, looked up)
chain: MTDRLKCLIWYCIDNQNYDNSIFYSERLHAIEDSNESLYLLAYSHFLNLDYNIVYDLLDRVISHVPCTYLFARTSLILGRYKQGISAVEACRSNWRSIQPNINDSISSRGHPDASCMLDVLGTMYKKAGFLKKATDCFVEAVSINPYNFSAFQNLTAIGVPLDANNVFVIPPYLTAMKGFEKSQTNATASVPEPSFLKKSKESSSSSNKFSVSESIANSYSNSSISAFTKWFDRVDASELPGSEKERHQSLKLQSQSQTSKNLLAFNDAQKADSNNRDTSLKSHFVEPRTQALRPGARLTYKLREARSSKRGESTPQSFREEDNNLMELLKLFGKGVYLLAQYKLREALNCFQSLPIEQQNTPFVLAKLGITYFELVDYEKSEEVFQKLRDLSPSRVKDMEVFSTALWHLQKSVPLSYLAHETLETNPYSPESWCILANCFSLQREHSQALKCINRAIQLDPTFEYAYTLQGHEHSANEEYEKSKTSFRKAIRVNVRHYNAWYGLGMVYLKTGRNDQADFHFQRAAEINPNNSVLITCIGMIYERCKDYKKALDFYDRACKLDEKSSLARFKKAKVLILLHDHDKALVELEQLKAIAPDEANVHFLLGKIFKQMRKKNLALKHFTIAWNLDGKATHIIKESIENLDIPEENLLTETGEIYRNLET
notes: Cdc27 (S. pombe name Nuc2; human Apc3), TPR subunit of the S. pombe anaphase-promoting complex; Subunit within the recombinant S. pombe APC/C used for cryo-EM; also called Apc3; source: recombinant S. pombe APC/C
Take B3: the binding result in data set [2] and in data set [1] was “binds” throughout.

B4: Cdc23 (Cut23) subunit of recombinant S. pombe APC/C (natural protein, UniProt O94556 1-565, looked up)
chain: MTVSLNTMMGVDGLEDQEQLREIRNCLLKCISECSERGLVYAVRWAAEMLNGMNPIEMEHIPFSSTPTGEFDLDPDMANEKLLEVEEKNIYLLAKSYFDCKEFERAAYTLQNCKSSKSIFLRLYSKYLAGEKKSEEENETLLNTNLTLSSTNREFYYISEVLESLHYQGNKDPYLLYLSGVVYRKRKQDSKAIDFLKSCVLKAPFFWSAWLELSLSIDSLETLTTVVSQLPSTHIMTKIFYVYASHELHQVNSSAYEKLAEAEIIFPNSRYLKTQRALLTYDSRDFDEAESLFENILTNDPYRLDDMDTYSNVLFVLENKSKLGFLAQVASSIDKFRPETCSIIGNYYSLLSEHEKAVTYFKRALQLNRNYLSAWTLMGHEYVELKNTHAAIESYRLAVDVNRKDYRAWYGLGQTYEVLDMHFYALYYFQRATALRPYDQRMWQALGNCYEKIDRPQEAIKSYKRALLGSQTNSSILVRLGNLYEELQDLNSAASMYKQCIKTEETEISPETIKARIWLARWELGKKNYREAELYLSEVLNGDLELEEAKALLRELRSRMEHSYD
notes: Cdc23 (S. pombe name Cut23; human Apc8), TPR subunit of the S. pombe anaphase-promoting complex; Subunit within the recombinant S. pombe APC/C used for cryo-EM; also called Apc8; source: recombinant S. pombe APC/C
With B4, the binding result in data set [2] and in data set [1] was “binds” each time.
